Results on six molecules are retold here after article doi:10.1101/2020.11.27.401307.

Data set [1] concerns the target T1, LARP6C La-module (Arabidopsis thaliana, UniProt Q9LHL3 137-332).
T1 sequence: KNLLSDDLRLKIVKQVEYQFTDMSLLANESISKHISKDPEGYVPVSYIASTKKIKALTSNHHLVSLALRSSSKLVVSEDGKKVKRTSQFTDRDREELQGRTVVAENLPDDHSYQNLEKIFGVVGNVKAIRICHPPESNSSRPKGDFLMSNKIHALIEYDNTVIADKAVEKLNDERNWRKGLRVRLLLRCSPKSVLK
The data set can be described thus: EMSA.

Data set [2] deals with T1, LARP6C La-module. Nature of the data set: ITC.
Data set [3] concerns the target T1, LARP6C La-module. The data set can be described thus: EMSA. The source holds these as a separate data set.
For data set [4], the target named is T1, LARP6C La-module. The data set can be described thus: EMSA. The source holds these as a separate data set.

On to UUUUUUUUUUUUUUUUUUUU (ssRNA) [oligo(U20)], for which, in the data set with LARP6C La-module [1], the binding result is reported as “binds”.

For the molecule AAAAAAGAAGAAAAA (ssRNA) [A1], the binding result in the data set with LARP6C La-module [2] was “no binding”.

With UCUCUCUGUUUCUUAUUCAUC (ssRNA) [B2], the Kd was 5.6 ± 0.2 µM with LARP6C La-module [3], 3.7 µM with LARP6C La-module [2] and 1.9 ± 0.3 µM with LARP6C La-module [4]. Regarding GAGAGAGGAGAAGAA (ssRNA) [A2], the binding result in the data set with LARP6C La-module [2] is “no binding”. Still for that read-out and setting: for CCUCUCCCCCCCUCCCCCCUC (ssRNA) [B3] the value was “no binding”.

Turning to CUUCUUUCUUUCUUUUUUGUU (ssRNA) [B1], the Kd was 3.5 ± 0.3 µM in the data set with LARP6C La-module [3], 2.8 µM with LARP6C La-module [2] and 0.8 ± 0.1 µM with LARP6C La-module [4].
